The text below walks through data of patent publication US20230287088A1 (BIONTECH, published 2023).

In general, EC50 refers to the concentration that produces a half-maximal response. What is called IC50 is the concentration that inhibits the measured activity by half. A word on the IC90: it is the concentration at which the effect reaches the 90% level. By Kd is commonly meant the constant that tells how readily two partners part at equilibrium. The koff is a measure of how fast the partners let go of each other. In general, kon refers to the second-order rate constant of association.

Residue numbers refer to the chain shown, from its start. Read-outs that look alike come from different tables or passages of the source.

Assay [1] has as its target T1, His-tagged SARS-CoV S1-RBD (Sino Biologicals) (SARS-CoV, UniProt P59594 306-527).
T1 construct: domain: S1-RBD; Bought reagent
Nature of the assay: ELISA on coated His-tagged SARS-CoV S1-RBD [D00020 Figure 8A continued]. On the technique in general: An ELISA detects its analyte on a solid surface through an enzyme-linked reagent.

In assay [2] the target is T2, Human-Fc-tagged SARS-CoV2 S1 recombinant protein (Sino Biologicals) (SARS-CoV-2, UniProt P0DTC2 16-685).
T2 construct: domain: S1; Bought reagent
Description: ELISA on coated S1-hFc, 3 µg/ml; rabbit antibody in B-cell supernatant.

The target in assay [3] is T2, Human-Fc-tagged SARS-CoV2 S1 ….
Assay [4] deals with T3, Mouse-Fc-tagged SARS-CoV2 S1-RBD (Sino Biologicals) recombinant protein (SARS-CoV-2, UniProt P0DTC2 319-541).
T3 construct: domain: S1-RBD
Description: competition ELISA: blocks S1-RBD-mFc binding to coated ACE-2 ECD.

The target of assay [5] is T3, Mouse-Fc-tagged SARS-CoV2 S1-RBD (Sino …). Description: ELISA on coated S1-RBD-mFc.
Assay [6] has the same target. Nature of the assay: competition ELISA: blocks S1-RBD-mFc binding to coated ACE-2 ECD. The source holds these as a separate data set.
Assay [7] has the same target. Description: ELISA on coated S1-RBD-mFc. This is another data set of the same source.
The target is the same in assay [8]. Description: SPR, S1-RBD-mFc captured via anti-mouse-Fc antibody, 1:1 model. (SPR reads the build-up and loss of mass on a sensor chip optically.)
The target in assay [9] is T2, Human-Fc-tagged SARS-CoV2 S1 …. Nature of the assay: ELISA on coated S1-hFc, 0.85 µg/ml; rabbit antibody in B-cell supernatant.

B1: P043.A.00032.C04 (antibody, V domains shown)
VH: QSLEESGGRLVTPGTPLTLTCTASGFSLSSYWMSWVRQAPGKGLEWIGIIYVSGSTYYASWAKGRFTISKTSTTVDLKMTSLTTEDTATYFCARVDYSTGWPLFNIWGPGTLVTVSL
VL: AQVLTQTASPVSAAVGGTVTINCQSSQSVYDNNWLGWYQQKPGQPPKLLIYGASILASGVPSRFKGSGSGTQFTLTISDLESDDAATYYCQGGCSGNTFVFGGGTEVVVK
notes: also called 452; protein sample ID 452
As for B1, the binding result in assay [1] is “no binding (tested: 1000 ng/ml)”. Besides, the concentration for a half-maximal effect (EC50) was found to be 0.0265 µg/mL in assay [2] and 0.007 µg/mL in assay [5]. The IC50 in assay [3] is 0.0147 µg/mL; in assay [4], 0.115 µg/mL.

B2: 461 (bispecific antibody)
heavy chain: QSVEESGGRLVTPGTPLTLTCTVSGFSLSSYAMSWVRQAPGKGLEWIGIINSGRSTYYASWAKGRFTISKTSTTVDLKITSPTTEDTATYFCARDATSIGYYRYYGMDPWGPGTLVTVSSASTKGPSVFPLAPSSKSTSGGTAALGCLVKDYFPEPVTVSWNSGALTSGVHTFPAVLQSSGLYSLSSVVTVPSSSLGTQTYICNVNHKPSNTKVDKRVEPKSCDKTHTCPPCPAPEAAGGPSVFLFPPKPKDTLMISRTPEVTCVVVDVSHEDPEVKFNWYVDGVEVHNAKTKPREEQYNSTYRVVSVLTVLHQDWLNGKEYKCKVSNKALPAPIEKTISKAKGQPREPQVYTLPPSREEMTKNQVSLTCLVKGFYPSDIAVEWESNGQPENNYKTTPPVLDSDGSFFLYSKLTVDKSRWQQGNVFSCSVLHEALHSHYTQKSLSLSPGK
light chain fused to scFv: AIQMTQSPSSLAASVGDTVTITCKASEDIGYGLNWYQQKLGIAPKLLIYGANTLESGVPSRFSGSGSETDYTLTISSVQAEDAGIYYCQQGYSTPLTFGAGTKVEIKRTVAAPSVFIFPPSDEQLKSGTASVVCLLNNFYPREAKVQWKVDNALQSGNSQESVTEQDSKDSTYSLSSTLTLSKADYEKHKVYACEVTHQGLSSPVTKSFNRGECDVPGGSGGGGSGGGGSGGGGSQMQLVQSGTEVKKPGESLKISCKGSGYGFITYWIGWVRQMPGKCLEWMGIIYPGDSETRYSPSFQGQVTISADKSINTAYLQWSSLKASDTAIYYCAGGSGISTPMDVWGQGTTVTVGGGGSGGGGSGGGGSGGGGSDIQLTQSPDSLAVSLGERATINCKSSQSVLYSSINKNYLAWYQQKPGQPPKLLIYWASTRESGVPDRFSGSGSGTDFTLTISSLQAEDVAVYYCQQYYSTPYTFGCGTKVEIK
notes: also called LC of P043.A.00018.C02 with a C-terminal fusion of a scFv of anti-S1 antibody; HC of P043.A.00018.C02 as IgG1-LALA-LS
Consider B2, for which, in assay [6], the IC50 was 0.0525 µg/mL and the IC90 is 0.913 µg/mL. Further, in assay [7], the EC50 turned out to be 0.0128 µg/mL.

B3: 462 (bispecific antibody)
heavy chain: QSVEESGGRLVTPGTPLTLTCTVSGFSLSSYAMSWVRQAPGKGLEWIGIISSSGTTYYASWAKGPFTISKTSTTVDLKITSPTTEDTATYFCARGGAGYGYAHYYGMDPWGPGTLVTVSSASTKGPSVFPLAPSSKSTSGGTAALGCLVKDYFPEPVTVSWNSGALTSGVHTFPAVLQSSGLYSLSSVVTVPSSSLGTQTYICNVNHKPSNTKVDKRVEPKSCDKTHTCPPCPAPEAAGGPSVFLFPPKPKDTLMISRTPEVTCVVVDVSHEDPEVKFNWYVDGVEVHNAKTKPREEQYNSTYRVVSVLTVLHQDWLNGKEYKCKVSNKALPAPIEKTISKAKGQPREPQVYTLPPSREEMTKNQVSLTCLVKGFYPSDIAVEWESNGQPENNYKTTPPVLDSDGSFFLYSKLTVDKSRWQQGNVFSCSVLHEALHSHYTQKSLSLSPGK
light chain fused to scFv: B2 light chain fused to scFv
notes: also called LC of P043.A.00024.C11 with a C-terminal fusion of a scFv of anti-S1 antibody; HC of P043.A.00024.C11 as IgG1-LALA-LS
As to B3, in assay [6], the concentration for half-maximal inhibition (IC50) came out at 0.0464 µg/mL and the IC90 was determined as 0.948 µg/mL. Besides, in assay [7], the EC50 was found to be 0.0119 µg/mL.

B4: P043.A.00023.E05 (antibody, V domains shown)
VH: QSLEESGGRLVTPGTPLTLTCTVSGFSLSSYAMSWVRQAPGKGLEWIGIISSSGSTYYASWAKGRFTISKTSTTVDLKITSPTTEDTATYFCARDASSRGYYYYYGMDPWGPGTLVTVSS
VL: AIQMTQSPSSLAASVGDTVTITCKASEDIGYGLNWYQQKLGIAPKLLIYGANTLESGVPSRFSGSGSETDYTLTISSVQAEDAGIYYCQQGYSTPLTFGAGTKVEIK
notes: also called 443; protein sample ID 443
Turning to B4, in assay [1], the binding result was “no binding (tested: 1000 ng/ml)”. Further, the EC50 in [2] came out at 0.0166 µg/mL. Also, the half-maximal inhibitory concentration (IC50) in assay [3] stood at 0.0082 µg/mL. Moreover, in [4], the IC50 amounted to 0.0349 µg/mL. In assay [8], the Kd was determined as 268 pM, the koff stood at 0.000263 s⁻¹ and the on-rate constant (kon) stood at 982000 M⁻¹ s⁻¹. Also, the 50% effective concentration (EC50) in [5] turned out to be 0.0112 µg/mL.

B5: P043.A.00092.C12 (antibody, V domains shown)
VH: QEELKETGGGLVQPGGSLTLSCKASGFDFSSYYMSWVRQAPGKGLEWIGVIYASKGSTDYASWVNGRFTISSDNAQNTVDLQMNSLTAADTATYYCARSKRFYTYGYAGYAYAHYYYGMDLWGPGTLVTVSS
VL: B4 VL with N52D
notes: also called 472; protein sample ID 472
Regarding B5, the IC50 worked out at 0.0065 µg/mL in assay [3] and 0.0299 µg/mL in assay [4]. For the same molecule, the EC50 in [9] came to 0.0068 µg/mL; in assay [5], 0.0083 µg/mL.

B6: P043.A.00017.E04 (antibody, V domains shown)
VH: QSVEESGGRLVTPGTPLTLTCTVSGFSLNNYAMNWVRQAPGKGLEWIGIISSSGNTYYANWAKGRFTISKTSTTVDLKITSPTTEDTATYFCARDSYPGYSPYYGMDPWGPGTLVTVSS
VL: B4 VL with G30A, A43T, D70H, S93N, L96P
Take B6: the binding result in [1] is given as “no binding (tested: 1000 ng/ml)”. Moreover, the concentration for a half-maximal effect (EC50) in [2] came out at 0.0196 µg/mL; in assay [5] it was 0.0082 µg/mL. For the same molecule, the values for the IC50 in assay [3] and in [4] were 0.0093 µg/mL and 0.0321 µg/mL, respectively. For the same molecule, the Kd in [8] was determined as 422 pM. Also, the koff in assay [8] worked out at 0.000327 s⁻¹. The kon in assay [8] turned out to be 445000 M⁻¹ s⁻¹.

B7: P043.A.00097.B02 (antibody, V domains shown)
VH: QELVESGGGLVQAGESLKLSCKASGIDFSSYGISWVRQAPGKGLEWIAYIYPGFGITNYANSVKGRFTISSDNAQNTVFLQMTSLTASDTATYFCTRAYASSSGYYIHYFNLWGPGTLVTVSS
VL: B4 VL with G91A
Turning to B7, the results for the IC50 in [3] and in assay [4] were 0.0055 µg/mL and 0.0417 µg/mL, respectively. The results for the EC50 in assay [9] and in [5] were 0.0054 µg/mL and 0.0034 µg/mL, respectively.

B8: P043.A.00023.A08 (protein sample ID 446) (antibody, V domains shown)
VH: QSVEESGGRLVTPGTPLTLTCTVSGFSLSKYAMSWVRQAPGKGLEWIGIISSGGSTYYASWAKGRFTISKTSSTTVDLKITSPTTEDTATYFCARAGYPGYSPHYFNIWGPGTLVTVSL
VL: B4 VL with G32E, S63T, L96P
As for B8, the binding result in [1] is given as “no binding (tested: 1000 ng/ml)”. The figures for the EC50 in assay [2], in assay [7] and in assay [5] were 0.0085 µg/mL, 0.007 µg/mL and 0.0081 µg/mL, respectively. The results for the IC50 in assay [3], in assay [4] and in assay [6] were 0.0047 µg/mL, 0.0373 µg/mL and 0.028 µg/mL, respectively. The IC90 in assay [6] was 18 µg/mL. Further, the Kd in assay [8] came out at 115 pM. For the same molecule, in [8], the koff was 0.000243 s⁻¹. Besides, the association rate constant (kon) in assay [8] came to 2.12e+06 M⁻¹ s⁻¹.

B9: P043.A.00024.C11 (protein sample ID 451) (antibody, V domains shown)
VH: B4 VH with L3V, S55T, R65P, D95G, A96G, S97A, S98G, R99Y, Y102A, Y103H
VL: B4 VL
For B9, the binding result in [1] is listed as “no binding (tested: 1000 ng/ml)”. The EC50 was 0.0048 µg/mL in assay [2], 0.0064 µg/mL in assay [7] and 0.007 µg/mL in [5]. Moreover, the results for the 50% inhibitory concentration (IC50) in [3], in assay [4] and in assay [6] were 0.0036 µg/mL, 0.0423 µg/mL and 0.0391 µg/mL, respectively. Moreover, the IC90 in assay [6] was 99.2 µg/mL. The dissociation constant (Kd) in [8] stood at 770 pM. In addition, the koff in assay [8] is 0.000307 s⁻¹. Besides, the kon in assay [8] came to 398000 M⁻¹ s⁻¹.

B10: P043.A.00018.C02 (protein sample ID 450) (antibody, V domains shown)
VH: B4 VH with L3V, S51N, S53G, G54R, S97T, R99I, Y103R
VL: B4 VL
Take B10: the binding result in [1] is “no binding (tested: 1000 ng/ml)”. For the same molecule, the concentration for a half-maximal effect (EC50) in assay [2] was 0.0017 µg/mL; in [7] it was 0.0077 µg/mL; in assay [5], 0.0082 µg/mL. Moreover, the IC50 in [3] was 0.001 µg/mL; in assay [4] it was 0.0433 µg/mL; in assay [6] it was 0.0286 µg/mL. For the same molecule, the 90% effect concentration (IC90) in assay [6] is 61.2 µg/mL. Further, the Kd in [8] was 398 pM. Moreover, the koff in assay [8] stood at 0.000283 s⁻¹. Also, the kon in assay [8] was 714000 M⁻¹ s⁻¹.

B11: P043.A.00036.C07 (antibody, V domains shown)
VH: QSLEESGGDLVKPGASLTLTCTASGFSFSSSYWICWVRQAPGKGLEWIGCIYTGSGSTWYASWAKGRFTISKTSSTTVTLQMTSLTAADTATYFCARGYGSYMYDFWGPGTLVTVSS
VL: DVVMTQTPASVEAAVGGTVTIKCQASQSISTALAWYQQKPGQPPKLLIYSASTLESGVPSRFKGSGSGTEFTLAISDLESADAATYYCQGADGSSSSFGGGTEVVVK
notes: also called 448; protein sample ID 448
For B11, the binding result in [1] is “no binding (tested: 1000 ng/ml)”. Besides, the concentration for a half-maximal effect (EC50) in assay [2] is 0.0387 µg/mL; in assay [5], 0.007 µg/mL. Moreover, the IC50 worked out at 0.0141 µg/mL in assay [3] and 0.0434 µg/mL in assay [4].
